{"source": "patent EP2467164A2", "about": "(dated 2012)", "binders": {"B1": {"name": "Ab #6 (antibody, V domains shown)", "VH": "EVQLLESGGGLVQPGGSLRLSCAASGFTFSHYVMAWVRQAPGKGLEWVSSISSSGGWTLYADSVKGRFTISRDNSKNTLYLQMNSLRAEDTAVYYCTRGLKMATIFDYWGQGTLVTVSS", "VL": "QSALTQPASVSGSPGQSITISCTGTSSDVGSYNVVSWYQQHPGKAPKLIIYEVSQRPSGVSNRFSGSKSGNTASLTISGLQTEDEADYYCCSYAGSSIFVIFGGGTKVTVL", "notes": "also called MM-121; anti-ErbB3 antibody Ab #6"}, "B2": {"name": "betacellulin (ligand, UniProt P35070 32-111, looked up)", "chain": "DGNSTRSPETNGLLCGDPEENCAATTTQSKRKGHFSRCPKQYKHYCIKGRCRFVVAEQTPSCVCDEGYIGARCERVDLFY", "modifications": "biotinylated in the FACS assay of Example 7 (site not stated)", "notes": "also called BTC; biotinylated BTC"}, "B3": {"name": "Ab #3 (antibody, V domains shown)", "VH": "EVQLLESGGGLVQPGGSLRLSCAASGFTFSAYNMRWVRQAPGKGLEWVSVIYPSGGATRYADSVKGRFTISRDNSKNTLYLQMNSLRAEDTAVYYCARGYYYYGMDVWGQGTLVTVSS", "VL": "QSVLTQPPSASGTPGQRVTISCSGSDSNIGRNYIYWYQQFPGTAPKLLIYRNNQRPSGVPDRISGSKSGTSASLAISGLRSEDEAEYHCGTWDDSLSGPVFGGGTKLTVL"}}, "key": {"[1]": {"target": "T1, ErbB3 expressed on MALME-3M melanoma cells (human, UniProt P21860 20-1342)", "T1 construct": "Endogenous ErbB3 of the MALME-3M cell line; also called ErbB3 on MALME-3M cells", "test": "cell binding assay on MALME-3M cells, flow cytometry, one-site model"}, "recombinant ErbB3": {"target": "T2, recombinant ErbB3 (human, UniProt P21860 20-643)", "T2 construct": "also called HER3", "test": "surface plasmon resonance, antibody as ligand, recombinant ErbB3 as analyte"}, "ErbB3": {"target": "T3, ErbB3 (human, UniProt P21860 20-643, limits assumed)", "T3 construct": "also called ErbB3 domain; HER3", "test": "KinExA"}, "ErbB3 on AdrR cells": {"target": "ErbB3 on AdrR cells (human, UniProt P21860 20-1342)", "test": "cell-based or functional assay"}, "ErbB1 on AdrR cells": {"target": "T4, ErbB1 on AdrR cells (UniProt P00533 25-1210, limits assumed)", "T4 construct": "whole, on cells; also called EGFR; ErbBl", "test": "flow cytometry, biotinylated BTC (Figure 15)"}}, "data": [{"binder": "B1", "values": [{"measurement": "Kd", "setting": "[1]", "result": "~4", "unit": "nM"}, {"measurement": "Kd", "setting": "recombinant ErbB3", "result": "~4", "unit": "nM"}, {"measurement": "Kd", "setting": "ErbB3", "result": 0.769, "unit": "nM"}, {"measurement": "koff", "setting": "ErbB3", "result": 0.00011, "unit": "s⁻¹"}, {"measurement": "kon", "setting": "ErbB3", "result": 143000, "unit": "M⁻¹ s⁻¹"}, {"measurement": "BTC-induced ErbB3 phosphorylation in AdrR cells (IC50)", "setting": "ErbB3 on AdrR cells", "result": 5.9, "unit": "nM"}, {"measurement": "HRG-induced ErbB3 phosphorylation in AdrR cells (IC50)", "setting": "ErbB3 on AdrR cells", "result": 2.4, "unit": "nM"}]}, {"binder": "B2", "values": [{"measurement": "binding result", "setting": "ErbB1 on AdrR cells", "result": "binds"}]}, {"binder": "B3", "values": [{"measurement": "Kd", "setting": "[1]", "result": "~1.3", "unit": "nM"}, {"measurement": "Kd", "setting": "recombinant ErbB3", "result": "~8", "unit": "nM"}]}]}
